According to PMC10917357, “Specific protein-RNA interactions are mostly preserved in biomolecular condensates”:

Tests used:
[1] = molecular target: SARS-CoV-2 nucleocapsid (N) (SARS-CoV-2, UniProt P0DTC9 1-419); experiment: UV cross-linking MS (LLPS-CLIR-MS); Assay buffers largely not in the material; N protein in 20 mM sodium phosphate pH 6.0, 50 mM NaCl (fig. S7 dispersed mimic 300 mM NaCl); UV 254 nm; turbidity of N at room temperature; NMR 303 or 310 K; settings: protein: recombinant; tags: N-terminal His6 removed by TEV; chain copies: 2; label: 18O4-ATP post-digestion labeling; hairpin with internal loops
PTBP1 (C250S/C251S) [2] = molecular target: T1, PTBP1 (C250S/C251S) (Homo sapiens, UniProt P26599-1 1-531, C250S;C251S); experiment: UV cross-linking MS (LLPS-CLIR-MS); dispersed and condensed phases; Assay buffers largely not in the material; N protein in 20 mM sodium phosphate pH 6.0, 50 mM NaCl (fig. S7 dispersed mimic 300 mM NaCl); UV 254 nm; turbidity of N at room temperature; NMR 303 or 310 K; settings: protein: recombinant; label: isotope-labeled; hairpin
FUS = FUS (UniProt P35637 1-526); experiment: UV cross-linking MS (LLPS-CLIR-MS); 0.075 and 0.1 eq RNA, 20 uM FUS; RRM (M321, Y325) and region C-terminal to ZnF; Assay buffers largely not in the material; N protein in 20 mM sodium phosphate pH 6.0, 50 mM NaCl (fig. S7 dispersed mimic 300 mM NaCl); UV 254 nm; turbidity of N at room temperature; NMR 303 or 310 K; settings: protein: recombinant; tags: GB1-His6 removed by TEV; label: isotope-labeled; two hairpins
PTBP1 (C250S/C251S) [3] = molecular target: T1, PTBP1 (C250S/C251S); experiment: UV cross-linking MS (LLPS-CLIR-MS); dispersed and condensed phases; RRM cross-links (H411, H457); Assay buffers largely not in the material; N protein in 20 mM sodium phosphate pH 6.0, 50 mM NaCl (fig. S7 dispersed mimic 300 mM NaCl); UV 254 nm; turbidity of N at room temperature; NMR 303 or 310 K; settings: protein: recombinant; label: 13C/15N-labeled and unlabeled 1:1; single strand

**Q.** Does GGUUCACCGAGGCCACGCGGAGUACGAUCGAGUGUACAGUGAACC (structured_RNA) [s2m] bind [1]?
**A.** binds

**Q.** Does GGGGGACUGCGUUCGCGCUUUCCC (structured_RNA) [U1-SL4] bind (PTBP1 (C250S/C251S) [2])?
**A.** binds

B1: U1-SL34 (structured_RNA)
RNA: GGGAUCCGAUUUCCCCAAAUGUGGGAAACUCGACUGCAUAAUUUGUGGUAGUGGGGGACUGCGUUCGCGCUUUCCCCUG
**Q.** Does B1 bind (FUS)?
**A.** binds

**Q.** Does GGGAGAUCUCUAAAAAUCUCUAAAAAUCUCUAAAAA (ssRNA) [3xUCUCU] bind (PTBP1 (C250S/C251S) [3])?
**A.** binds
